Patent US20060270832A1

Molecular target: human noradrenaline transporter (hNET) (human) (UniProt P23975)
Experiment: cell-based or functional assay

Chain of human noradrenaline transporter (hNET) (human) (P23975 whole entry): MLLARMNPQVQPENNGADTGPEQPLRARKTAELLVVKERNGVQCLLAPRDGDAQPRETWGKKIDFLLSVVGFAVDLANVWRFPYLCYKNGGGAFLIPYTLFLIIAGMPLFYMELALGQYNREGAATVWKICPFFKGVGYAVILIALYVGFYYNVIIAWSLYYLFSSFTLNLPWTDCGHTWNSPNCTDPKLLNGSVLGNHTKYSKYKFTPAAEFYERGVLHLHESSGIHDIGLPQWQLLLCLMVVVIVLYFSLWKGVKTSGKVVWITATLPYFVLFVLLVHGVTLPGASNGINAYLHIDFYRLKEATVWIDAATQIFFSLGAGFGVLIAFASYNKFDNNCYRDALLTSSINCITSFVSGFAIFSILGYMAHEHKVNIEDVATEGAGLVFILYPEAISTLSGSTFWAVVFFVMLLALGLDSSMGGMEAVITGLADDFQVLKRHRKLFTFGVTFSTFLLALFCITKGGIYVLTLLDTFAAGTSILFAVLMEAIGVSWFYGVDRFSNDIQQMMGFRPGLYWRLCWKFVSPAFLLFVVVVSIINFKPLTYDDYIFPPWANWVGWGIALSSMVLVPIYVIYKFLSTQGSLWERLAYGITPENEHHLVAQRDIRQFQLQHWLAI

Substance χ-MrIA (peptide) has an Av IC50, inhibition of NA uptake via hNET (log M (unit not given)) of -6.3.
